From patent publication US20230137139A1, “BIOSYNTHESIS OF CANNABINOIDS AND C[…]” (priority 2020, published 2023)

Test system: CBCA, THCA, and CBDA production
Assay: In vivo TS activity assay, Example 1 CBCAS library screen, cultures fed olivetolic acid, LC-MS
Assay type: cell-based, S. cerevisiae
Details: primary and secondary screen
Description: To identify CBCAS genes that can be functionally expressed in host cells, a library of approximately 3000 candidate CBCAS genes was designed based on internal codebases and domain knowledge, sampled across enzyme families, ecological niches, and structural homologies. Protein sequences were recoded in silico for expression in S. cerevisiae and synthesized in the integrative yeast expression vector shown in FIG. 5. Each candidate enzyme expression construct was transformed into an S. cerevisiae CEN.PK strain that also expressed a prenyltransferase enzyme capable of catalyzing reaction R^4 in FIG. 2. Strain t616313, expressing GFP, was included in the library screen as a negative control for enzyme activity. […]
An assay to detect TS activity was conducted as follows: each thawed glycerol stock of candidate CBCAS transformants was stamped into a well of YEP+4% dextrose media. […] Optical measurements were taken on a plate reader, with absorbance measured at 600 nm and fluorescence at 528 nm with 485 nm excitation. […] CBCA, THCA, and CBDA production in the samples was quantified via liquid chromatography-mass spectrometry (LC-MS). […]

B1: putative C. sativa CBCAS enzyme: previously disclosed putative C. sativa CBCAS (SEQ ID NO: 15) (protein)
chain: MNCSTFSFWFVCKIIFFFLSFNIQISIANPQENFLKCFSEYIPNNPANPKFIYTQHDQLYMSVLNSTIQNLRFTSDTTPKPLVIVTPSNVSHIQASILCSKKVGLQIRTRSGGHDAEGLSYISQVPFAIVDLRNMHTVKVDIHSQTAWVEAGATLGEVYYWINEMNENFSFPGGYCPTVGVGGHFSGGGYGALMRNYGLAADNIIDAHLVNVDGKVLDRKSMGEDLFWAIRGGGGENFGIIAACKIKLVVVPSKATIFSVKKNMEIHGLVKLFNKWQNIAYKYDKDLMLTTHFRTRNITDNHGKNKTTVHGYFSSIFLGGVDSLVDLMNKSFPELGIKKTDCKELSWIDTTIFYSGVVNYNTANFKKEILLDRSAGKKTAFSIKLDYVKKLIPETAMVKILEKLYEEEVGVGMYVLYPYGGIMDEISESAIPFPHRAGIMYELWYTATWEKQEDNEKHINWVRSVYNFTTPYVSQNPRLAYLNYRDLDLGKTNPESPNNYTQARIWGEKYFGKNFNRLVKVKTKADPNNFFRNEQSIPPLPPRHH
- CBCAS activity / CBCA production: not found to be active
